Laboratory results from paper PMC6565627, “Therapeutic effects of a novel BAFF blocker on arthritis” (Signal Transduction and Targeted Therapy, 2019).
Read-outs that look alike come from different tables or passages of the source. Values belong to the molecule of their own block, whether it stands above or below them.

Experiments:
[1] = biological target: T1, human B-cell activating factor (BAFF) (human, UniProt Q9Y275 134-285)
[2] = biological target: T1, human B-cell activating factor (BAFF); assay: ELISA; equilibrium binding in solution: human BAFF at 25 pM mixed with antagonist (0.04 nM to 655.36 nM) overnight at room temperature; unbound BAFF detected by ELISA
[3] = biological target: T1, human B-cell activating factor (BAFF); assay: cell-based or functional assay

- IC50 of inhibition of Raji cell proliferation induced by BAFF (1 μg/ml) and anti-IgM, CCK-8, 72 h [1]: 165 nM
Molecule: BAFF-Trap variant B102: CRD of Br3, CRD2 of TACI and Fc domain of human IgG1 (Fc fusion)

- IC50 of inhibition of Raji cell proliferation induced by BAFF (1 μg/ml) and anti-IgM, CCK-8, 72 h; blocks BAFF from its receptors TACI and Br3 on Raji cells [1]: 50.6 nM
- Kd [2]: 3.62 nM
Molecule: BAFF-Trap (variant B101): CRD2 of TACI, CRD of Br3 and Fc domain of human IgG1 (Fc fusion)

- IC50 of inhibition of Raji cell proliferation induced by BAFF (1 μg/ml) and anti-IgM, CCK-8, 72 h [3]: 69.5 nM
B1: TACI-Fc (Fc fusion, UniProt O14836 1-165, looked up)
chain: MSGLGRSRRGGRSRVDQEERFPQGLWTGVAMRSCPEEQYWDPLLGTCMSCKTICNHQSQRTCAAFCRSLSCRKEQGKFYDHLLRDCISCASICGQHPKQCAYFCENKLRSPVNLPPELRRQRSGEVENNSDNSGRYQGLEHRGSEASPALPGLKLSADQVALVYS
